Like-named read-outs stand apart in the source and are kept apart here.
Legend:
[1] = biological target: T1, human NaPi2b (sodium-dependent phosphate transporter 2B) (human, UniProt O95436 1-690); experiment: flow cytometry on HCC-78 cells (endogenous NaPi2b), 24 h at 4 C
T1 construct: Endogenous NaPi2b on the human tumor cell lines IGROV-1, HCC-78, H441 and H1781; also called hNaPi2b; SLC34A2
T1 sequence: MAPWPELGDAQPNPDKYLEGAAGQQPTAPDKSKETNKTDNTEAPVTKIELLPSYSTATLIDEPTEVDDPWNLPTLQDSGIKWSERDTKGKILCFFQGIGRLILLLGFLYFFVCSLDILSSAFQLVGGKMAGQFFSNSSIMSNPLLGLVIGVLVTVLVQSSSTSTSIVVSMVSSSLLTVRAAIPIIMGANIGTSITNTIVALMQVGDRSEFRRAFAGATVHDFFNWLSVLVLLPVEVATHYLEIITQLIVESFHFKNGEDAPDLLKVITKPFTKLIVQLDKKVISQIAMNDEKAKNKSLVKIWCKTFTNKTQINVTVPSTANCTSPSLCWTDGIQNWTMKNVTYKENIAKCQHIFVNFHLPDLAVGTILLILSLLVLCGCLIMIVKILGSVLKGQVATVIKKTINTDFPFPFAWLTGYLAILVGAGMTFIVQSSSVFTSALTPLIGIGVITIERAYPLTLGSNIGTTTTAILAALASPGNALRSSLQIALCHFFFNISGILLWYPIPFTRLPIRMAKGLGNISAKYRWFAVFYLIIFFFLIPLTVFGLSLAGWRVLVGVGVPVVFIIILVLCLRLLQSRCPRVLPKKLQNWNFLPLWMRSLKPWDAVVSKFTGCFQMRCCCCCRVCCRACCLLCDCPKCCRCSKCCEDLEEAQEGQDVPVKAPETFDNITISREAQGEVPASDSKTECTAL

[2] = biological target: T2, KLH (Sigma-Aldrich, H8283); experiment: NS-ELISA, KLH coated, antibody at 100 nM
T2 construct: Coating protein of the NS-ELISA

[3] = biological target: T1, human NaPi2b (sodium-dependent …); experiment: flow cytometry on H441 cells (endogenous NaPi2b), 24 h at 4 C
[4] = biological target: T3, human FcγR IIA H131 CD32aH (v5774) (human, UniProt P12318 34-217, limits assumed); experiment: SPR (Biacore T200), antibody captured on protein A, FcγR as analyte, single-cycle, steady-state fit
T3 construct: In-house reagent
T3 sequence (looked up): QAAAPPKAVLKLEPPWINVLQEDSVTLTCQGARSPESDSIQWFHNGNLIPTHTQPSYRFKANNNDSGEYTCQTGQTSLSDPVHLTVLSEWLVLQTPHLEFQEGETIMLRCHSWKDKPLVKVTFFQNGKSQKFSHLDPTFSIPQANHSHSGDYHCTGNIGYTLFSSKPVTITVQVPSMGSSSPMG

[5] = biological target: T4, human FcγR IIB Y160 CD32bY (v5777) (human, UniProt P31994 43-217, limits assumed); experiment: as above
T4 construct: In-house reagent
T4 sequence (looked up): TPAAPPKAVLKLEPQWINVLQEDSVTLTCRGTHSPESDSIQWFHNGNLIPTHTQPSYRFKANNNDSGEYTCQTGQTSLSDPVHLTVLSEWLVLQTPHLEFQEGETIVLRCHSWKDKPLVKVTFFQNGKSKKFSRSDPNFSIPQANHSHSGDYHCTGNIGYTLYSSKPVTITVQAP

[6] = biological target: T5, human FcγR IIIA F159 CD16aF (v5772) (human, UniProt P08637 17-208, limits assumed); experiment: as above
T5 construct: In-house reagent
T5 sequence (P08637 17-208 limits assumed): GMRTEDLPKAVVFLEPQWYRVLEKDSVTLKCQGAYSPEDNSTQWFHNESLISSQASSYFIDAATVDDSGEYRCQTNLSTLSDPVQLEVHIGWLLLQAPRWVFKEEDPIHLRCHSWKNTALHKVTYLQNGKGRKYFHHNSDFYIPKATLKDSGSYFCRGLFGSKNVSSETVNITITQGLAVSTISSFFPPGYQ

[7] = biological target: T1, human NaPi2b (sodium-dependent …); experiment: flow cytometry on IGROV-1 cells (endogenous NaPi2b), 24 h at 4 C
[8] = biological target: T6, human FcγR I CD64 (Sino Biological Inc. 10256-H08H) (human, UniProt P12314 16-288); experiment: SPR (Biacore T200), antibody captured on protein A, FcγR as analyte, multicycle, 1:1 fit
T6 construct: Bought reagent
T6 sequence (P12314 16-288 limits assumed): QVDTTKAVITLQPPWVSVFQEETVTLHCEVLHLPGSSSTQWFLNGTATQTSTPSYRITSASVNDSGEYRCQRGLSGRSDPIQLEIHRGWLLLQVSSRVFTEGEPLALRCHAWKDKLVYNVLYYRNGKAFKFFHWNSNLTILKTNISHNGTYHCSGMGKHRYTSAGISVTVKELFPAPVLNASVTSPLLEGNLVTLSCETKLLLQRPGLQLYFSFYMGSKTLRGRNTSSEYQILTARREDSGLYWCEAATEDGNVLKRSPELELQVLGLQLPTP

[9] = biological target: T3, human FcγR IIA H131 CD32aH (v5774); experiment: SPR (Biacore T200), antibody captured on protein A, FcγR as analyte, single-cycle, steady-state fit; remark: listed apart in the source
[10] = biological target: T4, human FcγR IIB Y160 CD32bY (v5777); experiment: as above; remark: listed apart in the source
[11] = biological target: T5, human FcγR IIIA F159 CD16aF (v5772); experiment: as above; remark: listed apart in the source
[12] = biological target: T6, human FcγR I CD64 (Sino Biological Inc. …); experiment: SPR (Biacore T200), antibody captured on protein A, FcγR as analyte, multicycle, 1:1 fit; remark: listed apart in the source
Biotinylated human FcRn = biological target: T7, Biotinylated human FcRn (human, UniProt P55899 24-297; P61769 21-119, limits assumed, biotinylated (site not stated)); experiment: SPR (Biacore T200), biotinylated FcRn on neutravidin, antibody as analyte, pH 5.9, steady-state fit
T7 construct: also called Biotinlated human FcRn; human neonatal fragment crystallizable receptor (FcRn)
T7 sequence (P55899 24-297 limits assumed, chain 1 of 2): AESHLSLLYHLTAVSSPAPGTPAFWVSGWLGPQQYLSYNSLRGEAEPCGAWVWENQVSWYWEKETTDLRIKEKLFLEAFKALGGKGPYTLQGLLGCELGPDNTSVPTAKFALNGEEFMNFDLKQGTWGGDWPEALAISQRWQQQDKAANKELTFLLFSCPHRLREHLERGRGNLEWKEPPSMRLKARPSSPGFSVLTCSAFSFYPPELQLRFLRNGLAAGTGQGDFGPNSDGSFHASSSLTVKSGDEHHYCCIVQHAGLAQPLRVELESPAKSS
T7 sequence (P61769 21-119 limits assumed, chain 2 of 2): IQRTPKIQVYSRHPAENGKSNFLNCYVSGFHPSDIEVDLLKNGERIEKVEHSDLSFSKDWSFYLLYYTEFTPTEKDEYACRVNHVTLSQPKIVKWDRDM

[13] = biological target: T8, human sodium-dependent phosphate transporter 2B (NaPi2b) (human, UniProt O95436 1-690); experiment: flow cytometry, IGROV-1 cells (endogenous NaPi2b); design: unit not given here
T8 construct: UniProt ID is given as 095436 [sic]; also called hNaPi2b; Hu NaPi2b
T8 sequence: T1 sequence

mouse NaPi2b = biological target: T9, mouse NaPi2b (mouse, UniProt Q9DBP0 1-697); experiment: flow cytometry, HEK293-6e cells transfected with mouse NaPi2b; apparent Kd
T9 construct: also called Ms NaPi2b; CL #13476
T9 sequence: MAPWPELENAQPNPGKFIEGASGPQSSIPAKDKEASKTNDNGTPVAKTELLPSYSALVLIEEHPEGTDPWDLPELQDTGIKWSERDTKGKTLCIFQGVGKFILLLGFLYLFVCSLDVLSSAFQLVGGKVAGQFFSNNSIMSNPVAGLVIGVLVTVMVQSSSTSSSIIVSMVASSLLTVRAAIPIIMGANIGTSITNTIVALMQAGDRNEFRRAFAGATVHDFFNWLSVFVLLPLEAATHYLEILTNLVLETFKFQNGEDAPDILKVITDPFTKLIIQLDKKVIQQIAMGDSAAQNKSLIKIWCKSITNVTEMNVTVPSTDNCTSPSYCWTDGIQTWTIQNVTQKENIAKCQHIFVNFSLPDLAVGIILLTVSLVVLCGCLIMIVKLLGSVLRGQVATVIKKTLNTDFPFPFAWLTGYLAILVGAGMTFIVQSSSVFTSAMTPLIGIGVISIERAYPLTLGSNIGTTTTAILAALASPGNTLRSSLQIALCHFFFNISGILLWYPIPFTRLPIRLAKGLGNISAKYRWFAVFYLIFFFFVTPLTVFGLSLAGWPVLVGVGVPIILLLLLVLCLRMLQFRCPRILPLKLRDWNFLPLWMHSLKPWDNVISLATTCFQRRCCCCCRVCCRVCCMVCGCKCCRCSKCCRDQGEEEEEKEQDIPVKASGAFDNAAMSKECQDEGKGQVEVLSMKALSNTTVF

cynomolgus monkey NaPi2b [14] = biological target: T10, cynomolgus monkey NaPi2b (cynomolgus monkey, UniProt O95436 1-690 (human entry)); experiment: flow cytometry, HEK293-6e cells transfected with cynomolgus NaPi2b; apparent Kd
T10 construct: also called Cyno NaPi2b; Cy NaPi2b
T10 chain: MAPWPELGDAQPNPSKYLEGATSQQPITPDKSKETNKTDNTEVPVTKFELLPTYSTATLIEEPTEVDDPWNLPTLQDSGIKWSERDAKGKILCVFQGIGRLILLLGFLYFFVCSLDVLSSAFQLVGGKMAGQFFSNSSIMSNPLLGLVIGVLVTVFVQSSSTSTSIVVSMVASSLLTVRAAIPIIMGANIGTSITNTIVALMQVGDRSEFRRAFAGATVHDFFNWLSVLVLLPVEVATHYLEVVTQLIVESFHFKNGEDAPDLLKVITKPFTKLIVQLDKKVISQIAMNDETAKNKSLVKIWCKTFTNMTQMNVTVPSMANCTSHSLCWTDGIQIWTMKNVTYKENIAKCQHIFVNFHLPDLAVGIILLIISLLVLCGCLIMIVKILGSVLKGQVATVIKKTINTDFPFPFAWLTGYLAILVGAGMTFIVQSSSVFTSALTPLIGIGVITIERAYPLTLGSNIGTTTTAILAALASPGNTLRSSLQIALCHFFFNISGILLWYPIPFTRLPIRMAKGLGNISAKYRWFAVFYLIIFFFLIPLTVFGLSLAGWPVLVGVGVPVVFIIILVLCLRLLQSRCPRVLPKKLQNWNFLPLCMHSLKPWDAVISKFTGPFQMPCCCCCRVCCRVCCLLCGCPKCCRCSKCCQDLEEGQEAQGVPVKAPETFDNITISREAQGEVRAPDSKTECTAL

[15] = biological target: T8, human sodium-dependent phosphate …; experiment: flow cytometry, HEK293-6e cells transfected with human NaPi2b; apparent Kd
[16] = biological target: T8, human sodium-dependent phosphate …; experiment: flow cytometry, IGROV-1 cells (endogenous NaPi2b); apparent Kd
[17] = biological target: T11, KLH (Sigma-Aldrich, H8283); experiment: non-specific ELISA, KLH coated, antibody 100 nM
T11 construct: Coating of the non-specific ELISA

cynomolgus monkey NaPi2b [18] = biological target: T10, cynomolgus monkey NaPi2b; experiment: flow cytometry, HEK293-6e cells transfected with cynomolgus NaPi2b
[19] = biological target: T8, human sodium-dependent phosphate …; experiment: flow cytometry, HEK293-6e cells transfected with human NaPi2b
[20] = biological target: T8, human sodium-dependent phosphate …; experiment: KinExA, monovalent antibody, IGROV-1 cells
[21] = biological target: T8, human sodium-dependent phosphate …; experiment: KinExA, monovalent antibody, IGROV-1 cells (endogenous NaPi2b) as titrant, N-curve analysis

B1: v38591 (humanized anti-NaPi2b antibody, wild-type Fc) (antibody, human IgG1, kappa)
heavy: not shown
light: DVQMTQSPSSLSASVGDRVTITCRASQDVYSYLNWYQQKPGKAVKLLIYYTSRLQSGVPSRFSGSGSGTDYTLTISSLQPEDFATYYCQQYNIFPWTFGQGTKLEIKRTVAAPSVFIFPPSDEQLKSGTASVVCLLNNFYPREAKVQWKVDNALQSGNSQESVTEQDSKDSTYSLSSTLTLSKADYEKHKVYACEVTHQGLSSPVTKSFNRGEC
notes: Full-size human IgG1/kappa; Identical to v29456 except that the heavy chains include a C-terminal lysine; also called v38591 Wild-type; v38591Wild-type
Which results are given for B1?
Bmax (MFI) [1]: 7990 MFI; Kd [1]: 1.03 nM; NS-ELISA (Binding score) [2]: 0.97 ratio to buffer well; Bmax (MFI) [3]: 511 MFI; Kd [3]: 0.85 nM; Binding percentage [4]: 80%; Kd [4]: 799 nM; Binding percentage [5]: 103%; Kd [5]: 4980 nM; Kd [6]: 1130 nM; Bmax (MFI) [7]: 10200 MFI; Kd [7]: 0.8 nM; Kd [8]: 0.0585 nM; Binding percentage [9]: 80%; Kd [9]: 799 nM; Binding percentage [10]: 103%; Kd [10]: 4980 nM; Kd [11]: 1130 nM; Binding percentage [12]: 91.2%; Kd [12]: 0.0585 nM; Binding percentage (Biotinylated human FcRn): 28.6%

B2: v29456 (H1L2) (antibody, human IgG1, kappa)
heavy: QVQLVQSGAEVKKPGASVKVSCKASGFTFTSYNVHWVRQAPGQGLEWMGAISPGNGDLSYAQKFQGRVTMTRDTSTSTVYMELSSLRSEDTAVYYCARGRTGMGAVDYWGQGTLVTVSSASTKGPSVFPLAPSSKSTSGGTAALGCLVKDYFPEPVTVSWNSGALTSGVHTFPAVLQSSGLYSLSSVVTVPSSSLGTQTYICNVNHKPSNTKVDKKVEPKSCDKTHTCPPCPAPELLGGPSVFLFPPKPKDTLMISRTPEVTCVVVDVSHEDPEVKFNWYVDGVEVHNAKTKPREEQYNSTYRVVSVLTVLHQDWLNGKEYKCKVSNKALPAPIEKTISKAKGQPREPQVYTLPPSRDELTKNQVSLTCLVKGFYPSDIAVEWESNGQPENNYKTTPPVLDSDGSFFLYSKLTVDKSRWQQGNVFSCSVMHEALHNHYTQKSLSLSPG
light: B1 light
notes: Humanized IgG1/kappa; heavy chain ends at G446 (EU); also called humanized antibody variant v29456
How did the Bmax [13] turn out when B2 was run?
Its Bmax is 40900.

And the Kd (mouse NaPi2b)?
The Kd was 10.6 nM.

And the Kd (cynomolgus monkey NaPi2b [14])?
The Kd was 3.2 nM.

And the Kd [15]?
The Kd was 5.2 nM.

And the Kd [16]?
The Kd was 1.1 nM.

What about the “NS-ELISA binding score (signal over buffer well)” value [17] of the same binder?
The value was 1.37.

And the Bmax (cynomolgus monkey NaPi2b [18])?
The Bmax was 2010.

And the Bmax [19]?
Its Bmax is 2540.

B3: v36123 (monovalent format of humanized antibody variant 29452) (antibody, V domains shown)
VH: QVQLVQSGAEVKKPGASVKVSCKASGFTFTSYNVHWVRQAPGQGLEWMGAISPGNGDLSYAQKFQGRVTMTRDTSTSTVYMELSSLRSEDTAVYYCARGRTGMGAVDYWGQGTLVTVSS
VL: DVQMTQSPSSLSASVGDRVTITCRASQDVYSYLNWYQQKPGKAVKLLIYYTSRLQSGVPSRFSGSGSGTDYTLTISSLQPEDIATYYCQQYNIFPWTFGQGTKLEIK
notes: Monovalent format; rest of the construct not described; also called VH1/VL3
What does the source list for B3?
fold lower binding affinity compared to chimeric parental antibody construct [20]: ~2 fold; Kd [21]: 0.297 nM
